Data taken from paper PMC280649 (BMC Biochemistry, 2003).
Where “and” joins values, the source holds several entries; their conditions need not be identical. Identical values can stand only once.

Tests used:
[1] = biological target: CAR (Homo sapiens) (UniProt P78310); conditions: cited from earlier work
[2] = biological target: CD31 (Homo sapiens) (UniProt P16284); conditions: cited from earlier work
[3] = biological target: CD150 (Homo sapiens) (UniProt Q13291); assay: SPR; conditions: cited from earlier work
[4] = biological target: NCAM (UniProt P13591); conditions: cited from earlier work
[5] = biological target: the molecule itself; assay: SPR
[6] = biological target: the molecule itself; assay: SPR; remark: listed apart in the source

In the case of CAR (from UniProt P78310), the Kd [1] is given as 16 µM.

In the case of CD31 (from UniProt P16284), the Kd [2] is listed as 12.5 µM.

For CD150 (from UniProt Q13291), the Kd [3] is listed as 200 µM.

For NCAM (from UniProt P13591), the Kd [4] is listed as 100 µM.

B1: mCD147d0-2rCD4d3+4 (mouse CD147 domains 0 to 2 fused to rat CD4 domains 3 and 4) (domain or fragment, UniProt P18572 22-325, looked up)
chain: AAGFLKAPLSQERWAGGSVVLHCEAVGSPIPEIQWWFEGNAPNDSCSQLWDGARLDRVHIHAAYRQHAASSLSVDGLTAEDTGTYECRASSDPDRNHLTRPPRVKWVRAQASVVVLEPGTIQTSVQEVNSKTQLTCSLNSSGVDIVGHRWMRGGKVLQEDTLPDLHTKYIVDADDRSGEYSCIFLPEPVGRSEINVEGPPRIKVGKKSEHSSEGELAKLVCKSDASYPPITDWFWFKTSDTGEEEAITNSTEANGKYVVVSTPEKSQLTISNLDVNVDPGTYVCNATNAQGTTRETISLRVRSR
modifications: biotin on the C-terminal biotinylation sequence (BirA enzyme) in the immobilised copy; the soluble copy was unbiotinylated
In the case of B1, the koff [5] is reported as 0.7 s⁻¹, the t1/2 [5] is reported as 1 s and the Kd [6] is reported as 39 µM and 35 µM.
